Measurements: patent publication US7842469B2, “Bioluminescence resonance energy transfer (BRET) systems and methods of use thereof” (Stanford University, priority 2005, dated 2010)

How the values were obtained:
[1] = Luciferase activity of purified RLuc mutants (light output integrated over 10 s, luminometer); format: biochemical; settings: relative to native enzyme; for Activity (relative to RLuc) bc: benzyl-coelenterazine; for Activity (relative to RLuc) bdc: bisdeoxycoelenterazine; for Activity (relative to RLuc) cp: coelenterazine-cp; for Activity (relative to RLuc) n: coelenterazine-n; for Activity (relative to RLuc) native: native coelenterazine
Excerpt: Luminometer Calibration: Light measurements were made using a Turner 20/20 and later a Turner 20/20n luminometer (Turner Designs, Sunnyvale, Calif.). The luminometers were calibrated to absolute units (photons/s) using the luminol light standard performed in dimethyl sulfoxide (DMSO). No corrections were applied for the spectral sensitivity of the luminometer, as the spectral peak of luminol chemiluminescence in DMSO (486 nm) is close to the spectral peak of Renilla Luciferase bioluminescence (482 nm).
Characterization of Renilla Luciferase Mutants: Luciferase activity was measured by adding 1 μl of sample (diluted as necessary in EB containing 1% HSA) to 100 μl room temperature 100 mM sodium phosphate buffer (pH 7), manually adding 1 μl of 0.5 μg/μl coelenterazine or analog, manually mixing, and reading for 10 s in a luminometer. The time between the addition of the luciferin and the start of measurement was approximately 4 s.

[2] = Serum stability in mouse serum at 37° C.; format: in vitro ADME; settings: mouse serum, 37° C., mono-exponential fit
Experimental: (§1) Serum stability measurements were done by mixing 0.5 μl dilute Luciferase with either 20 μl mouse serum or 50 μl rat serum (Equitech-Bio, Kerrville, Tex.) placing the sample in a 37° C. incubator, and removing aliquots for activity testing. To calculate serum half-lives, mono-exponential decay curves were fit to the serum stability data using a Nelder/Mead Simplex non-linear least squares minimization algorithm provided by the Octave numerical programming language. Emission spectra at ambient temperature were measured using a Triax 320 (Horiba Jobin Yvon, Edison, N.J.), which incorporates an optical grating device with a liquid N2 cooled CCD detector.

[3] = Serum stability in rat serum at 37° C.; format: in vitro ADME; settings: mono-exponential fit
Experimental: as §1

[4] = Bioluminescence emission spectra; format: physicochemical; settings: emission spectrum with native coelenterazine
Experimental: as §1

B1: C124A/L203R: RLuc mutant C124A/L203R (protein)
chain: MASKVYDPEQRKRMITGPQWWARCKQMNVLDSFINYYDSEKHAENAVIFLHGNAASSYLWRHVVPHIEPVARCIIPDLIGMGKSGKSGNGSYRLLDHYKYLTAWFELLNLPKKIIFVGHDWGAALAFHYSYEHQDKIKAIVHAESVVDVIESWDEWPDIEEDIALIKSEEGEKMVLENNFFVETMLPSKIMRKLEPEEFAAYREPFKEKGEVRRPTLSWPREIPLVKGGKPDVVQIVRNYNAYLRASDDLPKMFIESDPGFFSNAIVEGAKKFPNTEFVKVKGLHFSQEDAPDEMGKYIKSFVERVLKNEQ
Activity (relative to RLuc) bc [1]: 0.55
Activity (relative to RLuc) bdc [1]: 0.43
Activity (relative to RLuc) cp [1]: 0.52
Activity (relative to RLuc) n [1]: 0.41
Activity (relative to RLuc) native [1]: 0.55
Serum τ1/2 (h) mouse [2]: 2.7 h
Serum τ1/2 (h) rat [3]: 2.2 h
Wavelength (nm) mean [4]: 501 nm
Wavelength (nm) peak [4]: 484 nm

B2: C124A/F262L: RLuc mutant C124A/F262L (protein)
chain: MASKVYDPEQRKRMITGPQWWARCKQMNVLDSFINYYDSEKHAENAVIFLHGNAASSYLWRHVVPHIEPVARCIIPDLIGMGKSGKSGNGSYRLLDHYKYLTAWFELLNLPKKIIFVGHDWGAALAFHYSYEHQDKIKAIVHAESVVDVIESWDEWPDIEEDIALIKSEEGEKMVLENNFFVETMLPSKIMRKLEPEEFAAYLEPFKEKGEVRRPTLSWPREIPLVKGGKPDVVQIVRNYNAYLRASDDLPKMFIESDPGFLSNAIVEGAKKFPNTEFVKVKGLHFSQEDAPDEMGKYIKSFVERVLKNEQ
Activity (relative to RLuc) bc [1]: 0.03
Activity (relative to RLuc) bdc [1]: 0.03
Activity (relative to RLuc) cp [1]: 0.01
Activity (relative to RLuc) n [1]: 0.06
Activity (relative to RLuc) native [1]: 0.03
Serum τ1/2 (h) mouse [2]: 5.8 h
Serum τ1/2 (h) rat [3]: 6.4 h
Wavelength (nm) mean [4]: 495 nm
Wavelength (nm) peak [4]: 478 nm

B3: C124A/Q235A: RLuc mutant C124A/Q235A (protein)
chain: MASKVYDPEQRKRMITGPQWWARCKQMNVLDSFINYYDSEKHAENAVIFLHGNAASSYLWRHVVPHIEPVARCIIPDLIGMGKSGKSGNGSYRLLDHYKYLTAWFELLNLPKKIIFVGHDWGAALAFHYSYEHQDKIKAIVHAESVVDVIESWDEWPDIEEDIALIKSEEGEKMVLENNFFVETMLPSKIMRKLEPEEFAAYLEPFKEKGEVRRPTLSWPREIPLVKGGKPDVVAIVRNYNAYLRASDDLPKMFIESDPGFFSNAIVEGAKKFPNTEFVKVKGLHFSQEDAPDEMGKYIKSFVERVLKNEQ
Activity (relative to RLuc) bc [1]: 1.1
Activity (relative to RLuc) bdc [1]: 1.2
Activity (relative to RLuc) cp [1]: 1.1
Activity (relative to RLuc) n [1]: 1.0
Activity (relative to RLuc) native [1]: 1.2
Serum τ1/2 (h) mouse [2]: 3.3 h
Serum τ1/2 (h) rat [3]: 3.6 h
Wavelength (nm) mean [4]: 489 nm
Wavelength (nm) peak [4]: 473 nm

B4: C124A/G229E: RLuc mutant C124A/G229E (protein)
chain: MASKVYDPEQRKRMITGPQWWARCKQMNVLDSFINYYDSEKHAENAVIFLHGNAASSYLWRHVVPHIEPVARCIIPDLIGMGKSGKSGNGSYRLLDHYKYLTAWFELLNLPKKIIFVGHDWGAALAFHYSYEHQDKIKAIVHAESVVDVIESWDEWPDIEEDIALIKSEEGEKMVLENNFFVETMLPSKIMRKLEPEEFAAYLEPFKEKGEVRRPTLSWPREIPLVKGEKPDVVQIVRNYNAYLRASDDLPKMFIESDPGFFSNAIVEGAKKFPNTEFVKVKGLHFSQEDAPDEMGKYIKSFVERVLKNEQ
Activity (relative to RLuc) bc [1]: 0.01
Activity (relative to RLuc) bdc [1]: 0.01
Activity (relative to RLuc) cp [1]: 0.03
Activity (relative to RLuc) n [1]: 0.03
Activity (relative to RLuc) native [1]: 0.02
Serum τ1/2 (h) mouse [2]: 1.9 h
Serum τ1/2 (h) rat [3]: 1.8 h
Wavelength (nm) mean [4]: 490 nm
Wavelength (nm) peak [4]: 473 nm

B5: C124A/S257G: RLuc mutant C124A/S257G (protein)
chain: MASKVYDPEQRKRMITGPQWWARCKQMNVLDSFINYYDSEKHAENAVIFLHGNAASSYLWRHVVPHIEPVARCIIPDLIGMGKSGKSGNGSYRLLDHYKYLTAWFELLNLPKKIIFVGHDWGAALAFHYSYEHQDKIKAIVHAESVVDVIESWDEWPDIEEDIALIKSEEGEKMVLENNFFVETMLPSKIMRKLEPEEFAAYLEPFKEKGEVRRPTLSWPREIPLVKGGKPDVVQIVRNYNAYLRASDDLPKMFIEGDPGFFSNAIVEGAKKFPNTEFVKVKGLHFSQEDAPDEMGKYIKSFVERVLKNEQ
Activity (relative to RLuc) bc [1]: 0.95
Activity (relative to RLuc) bdc [1]: 3.0
Activity (relative to RLuc) cp [1]: 1.3
Activity (relative to RLuc) n [1]: 1.1
Activity (relative to RLuc) native [1]: 1.1
Serum τ1/2 (h) mouse [2]: 1.3 h
Serum τ1/2 (h) rat [3]: 1.4 h
Wavelength (nm) mean [4]: 493 nm
Wavelength (nm) peak [4]: 477 nm

B6: C124A/K300A: RLuc mutant C124A/K300A (protein)
chain: MASKVYDPEQRKRMITGPQWWARCKQMNVLDSFINYYDSEKHAENAVIFLHGNAASSYLWRHVVPHIEPVARCIIPDLIGMGKSGKSGNGSYRLLDHYKYLTAWFELLNLPKKIIFVGHDWGAALAFHYSYEHQDKIKAIVHAESVVDVIESWDEWPDIEEDIALIKSEEGEKMVLENNFFVETMLPSKIMRKLEPEEFAAYLEPFKEKGEVRRPTLSWPREIPLVKGGKPDVVQIVRNYNAYLRASDDLPKMFIESDPGFFSNAIVEGAKKFPNTEFVKVKGLHFSQEDAPDEMGKYIASFVERVLKNEQ
Activity (relative to RLuc) bc [1]: 1.0
Activity (relative to RLuc) bdc [1]: 1.3
Activity (relative to RLuc) cp [1]: 1.1
Activity (relative to RLuc) n [1]: 1.0
Activity (relative to RLuc) native [1]: 1.1
Serum τ1/2 (h) mouse [2]: 3.5 h
Serum τ1/2 (h) rat [3]: 3.9 h
Wavelength (nm) mean [4]: 497 nm
Wavelength (nm) peak [4]: 481 nm

B7: C124A/M295I: RLuc mutant C124A/M295I (protein)
chain: MASKVYDPEQRKRMITGPQWWARCKQMNVLDSFINYYDSEKHAENAVIFLHGNAASSYLWRHVVPHIEPVARCIIPDLIGMGKSGKSGNGSYRLLDHYKYLTAWFELLNLPKKIIFVGHDWGAALAFHYSYEHQDKIKAIVHAESVVDVIESWDEWPDIEEDIALIKSEEGEKMVLENNFFVETMLPSKIMRKLEPEEFAAYLEPFKEKGEVRRPTLSWPREIPLVKGGKPDVVQIVRNYNAYLRASDDLPKMFIESDPGFFSNAIVEGAKKFPNTEFVKVKGLHFSQEDAPDEIGKYIKSFVERVLKNEQ
Activity (relative to RLuc) bc [1]: 0.83
Activity (relative to RLuc) bdc [1]: 0.86
Activity (relative to RLuc) cp [1]: 0.57
Activity (relative to RLuc) n [1]: 0.72
Activity (relative to RLuc) native [1]: 1.0
Serum τ1/2 (h) mouse [2]: 5.0 h
Serum τ1/2 (h) rat [3]: 4.9 h
Wavelength (nm) mean [4]: 497 nm
Wavelength (nm) peak [4]: 480 nm
